Measured values as given in US20210115135A1 (ZHEJIANG SHIMAI PHARMACEUTICAL, published 2021).

T1: recombinant human LAG3 (Sino Biological Inc.) (human, UniProt P18627 23-450)
T1 construct: Bought recombinant protein; also called CD223; biotinylated recombinant human LAG3
T1 sequence (looked up): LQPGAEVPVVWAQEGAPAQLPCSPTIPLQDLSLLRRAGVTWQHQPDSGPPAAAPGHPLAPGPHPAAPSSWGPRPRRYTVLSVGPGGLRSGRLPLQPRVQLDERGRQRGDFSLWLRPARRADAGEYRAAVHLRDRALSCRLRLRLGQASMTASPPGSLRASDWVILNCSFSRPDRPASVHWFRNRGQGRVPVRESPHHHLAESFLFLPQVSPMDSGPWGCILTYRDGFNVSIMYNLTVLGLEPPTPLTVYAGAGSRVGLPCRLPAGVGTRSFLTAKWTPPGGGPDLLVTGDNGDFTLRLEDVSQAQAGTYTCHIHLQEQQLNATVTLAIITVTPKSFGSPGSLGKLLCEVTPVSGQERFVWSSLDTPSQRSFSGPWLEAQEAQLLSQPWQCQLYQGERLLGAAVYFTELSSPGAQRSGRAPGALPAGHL

T2: LAG3 of the Promega LAG3-MHCII Blockade Bioassay Kit (Cat. No.: CS194802) (UniProt P18627 23-525, limits assumed)
T2 sequence (looked up): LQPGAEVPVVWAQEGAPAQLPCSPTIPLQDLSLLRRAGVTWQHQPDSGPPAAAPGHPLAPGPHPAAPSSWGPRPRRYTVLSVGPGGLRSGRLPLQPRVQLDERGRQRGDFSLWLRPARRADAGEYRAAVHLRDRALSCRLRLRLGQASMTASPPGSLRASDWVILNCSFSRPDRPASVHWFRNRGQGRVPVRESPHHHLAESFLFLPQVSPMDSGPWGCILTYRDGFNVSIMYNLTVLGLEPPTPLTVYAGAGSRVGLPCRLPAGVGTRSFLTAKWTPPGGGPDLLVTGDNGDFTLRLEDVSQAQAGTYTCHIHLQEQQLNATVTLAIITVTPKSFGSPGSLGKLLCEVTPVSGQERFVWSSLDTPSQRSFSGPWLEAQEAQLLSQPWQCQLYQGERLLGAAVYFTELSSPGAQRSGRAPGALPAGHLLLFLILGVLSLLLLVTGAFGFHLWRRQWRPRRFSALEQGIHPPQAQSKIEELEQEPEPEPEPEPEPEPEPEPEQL


Columns and labels:
[1] = target: T1, recombinant human LAG3 (Sino Biological …); test: phage panning and monoclonal phage ELISA on recombinant human LAG3
Procedure: We have recently constructed a large (size, 10¹¹) phage-display naïve human Fab library with peripheral blood B cells from about 30 healthy individuals according to the previously published protocols (de Haard et al., J Biol Chem 1999, 274: 18218-18230). This library was used for selection of antibodies against recombinant human LAG3 conjugated to magnetic beads (Dynabeads M-270 epoxy; DYNAL Inc.) as described previously (Zhu et al., J Virol 2006, 80:891-899) except that we used 5, 1 and 0.1 μg of antigen in the first, second and third round of panning, respectively. Clones that bound to the antigen were identified from the third round of biopanning by using monoclonal phage ELISA as described (Zhu et al., J Virol 2006, 80:891-899).

[2] = target: T1, recombinant human LAG3 (Sino Biological …); test: ELISA, recombinant human LAG3 coated, Fab detected by anti-FLAG-HRP
Procedure: The hexahistidine-tagged antibodies were expressed in E. coli strain HB2151 and purified from the soluble fraction of periplasm by using the Ni-NTA resin. 7 monoclonal antibodies against human LAG3 were selected by panning a large phage-display library of naïve human antibodies in the format of antigen-binding fragment (Fab). Then ELISA was performed according to standard protocols. Briefly, recombinant human LAG3 (Sino Biological Inc.) was coated on Corning EIA/RIA high-binding 96-well plates (Corning Inc.) at 50 ng per well overnight at 4° C. and blocked with 3% nonfat milk in PBS (pH7.4). Fivefold serially diluted antibodies were added and incubated at room temperature for 2 h. The plates were washed with PBS containing 0.05% Tween 20. Bound antibodies were detected by HRP-conjugated anti-FLAG tag antibody (Sigma-Aldrich). The assay was developed at room temperature with TMB substrate (Sigma-Aldrich) and monitored at 450 nm with a microplate reader.

[3] = target: T1, recombinant human LAG3 (Sino Biological …); test: ELISA, recombinant human LAG3 coated, IgG detected by anti-human IgG (Fc-specific)-HRP
Procedure: ELISA was performed according to standard protocols. Briefly, recombinant human LAG3 (Sino Biological Inc.) was coated on Corning EIA/RIA high-binding 96-well plates (Corning Inc.) at 50 ng per well overnight at 4° C. and blocked with 3% nonfat milk in PBS (pH7.4). Fivefold serially diluted antibodies were added and incubated at room temperature for 2 h. The plates were washed with PBS containing 0.05% Tween 20. Bound Fab and IgG antibodies were detected by HRP-conjugated anti-FLAG tag antibody and HRP-conjugated anti-human IgG (Fe-specific) antibody (Sigma-Aldrich), respectively. The assay was developed at room temperature with TMB substrate (Sigma-Aldrich) and monitored at 450 nm with a microplate reader. The half-maximal binding (EC₅₀) was calculated by fitting the data to the Langmuir adsorption isotherm. DNV3 IgG1 and IgG4 were cloned into the plasmid vectors pDin1 and pDin4, respectively. They were expressed and purified from transiently transfected 293 freestyle cell cultures with a yield of […]. In ELISA, both DNV3 IgG1 and IgG4 bound to recombinant human LAG3 with an EC₅₀ of approximately 0.5 nM (FIG. 5).

[4] = target: T2, LAG3 of the Promega LAG3-MHCII Blockade …; test: cell-based or functional assay

Row | Binder | binding result [1] | binding result [2] | other results
1 | DNV7 Fab (Fab, V domains shown, Human Fab from a phage library, hexahistidine-tagged, detected through a FLAG tag, made in E. coli HB2151) VH: EVQLVESGAEVKKPGSSVKVSCKASGGTFSSYAISWVRQAPGQGLEWMGGIIPIFGTANYAQKFQGRVTITADKSTSTAYMELSSLRSEDTAVYYCALDGKSGFDLAFDIWGQGTMVTVSS VL: DIQLTQSPSSLSASVGDRVTITCRASRRISSYLNWYQQKQGKAPQLLIYAASSLQSGVPSRFSGSGSGTEFTLTISSLQPEDFATYYCQQFNSYPLTFGGGTKVEIK | binds | – | –
2 | DNV2 Fab (Fab, V domains shown, Human Fab from a phage library, hexahistidine-tagged, detected through a FLAG tag, made in E. coli HB2151) VH: EVQLVQSGAEVKKPGASVKVSCKASGGTFSSYTISWVRQAPGQGLEWMGGIIPIFGTANYAQKFQGRVTITADKSTSTAYMELSSLRSEDTAVYYCARDPVFDYWGQGTLVTVSS VL: DIQLTQSPSSLSASVGDRVTITCRASQNIGTYLNWYQQKPGKAPKLLIYAASSLQSGVPSRFSGSGSGTDFTLTISSLQPEDFATYYCQQLNSYPITFGQGTRLEIK | binds | – | –
3 | DNV6 Fab (Fab, V domains shown, Human Fab from a phage library, hexahistidine-tagged, detected through a FLAG tag, made in E. coli HB2151) VH: EVQLVQSGAEVKKPGESLKISCKGSGYSFTSYWIGWVRQMPGKGLEWMGIIYPGDSDTRYSPSFQGQVTISADKSISTAYLQWSSLKASDTAMYYCASGAPGYYYDSSGYYAFDIWGQGTMVTVSS VL: QSVVTQPPSVSGAPGQRVTVSCTGSSSNIGADFDVHWYQQLPGTAPKLLIYGNTNRPSGVPDRFSGSKSGTSASLAITGLQAEDEADYYCQSYDNSLSGVVFGGGTKVTVL | – | – | EC50 [2]: ≤ 10 nM
4 | DNV5 Fab (Fab, V domains shown, Human Fab from a phage library, hexahistidine-tagged, detected through a FLAG tag, made in E. coli HB2151) VH: QVQLVQSGAEVKKPGASVKVSCKASGGTFSSYAISWVRQAPGQGLEWMGGIIPIFGTANYAQKFQGRVTITADESTSTAYMELSSLRSEDTAVYYCARASPPAAYYYYYGMDVWGQGTTVTVSS VL: DIQMTQSPSSLSASVGDRVTITCQASQDISNYLNWYQQKPGKAPKLLIYAASILQSGVPSRFSGSGSGTDFTLTISSLQPEDFATYYCQQSHSYSETFGQGTKVEIK | – | – | EC50 [2]: ≤ 10 nM
5 | DNV3 IgG4 (antibody, Human IgG4 made in 293FS cells; also called original DNV3 IgG4) heavy: not shown light: QSVLTQPPSVSAAPGQKVTISCSGSTSNIAINYVSWYQQVPGTVPKLLIYDDDKRPSGIPDRFSGSKSGTSATLDISGLQTGDEAHYYCGVWDNSLLAVLFGGGTSLTVLGQPKAAPSVTLFPPSSEELQANKATLVCLISDFYPGAVTVAWKADSSPVKAGVETTTPSKQSNNKYAASSYLSLTPEQWKSHRSYSCQVTHEGSTVEKTVAPTECS | – | – | EC50 [3]: ~0.5 nM; T cell activation, EC50 [4]: 8.7 nM
6 | DNV3 IgG1 (antibody, Human IgG1 made in 293FS cells) heavy: not shown light: QSVLTQPPSVSAAPGQKVTISCSGSTSNIAINYVSWYQQVPGTVPKLLIYDDDKRPSGIPDRFSGSKSGTSATLDISGLQTGDEAHYYCGVWDNSLLAVLFGGGTSLTVLGQPKAAPSVTLFPPSSEELQANKATLVCLISDFYPGAVTVAWKADSSPVKAGVETTTPSKQSNNKYAASSYLSLTPEQWKSHRSYSCQVTHEGSTVEKTVAPTECS | – | – | EC50 [3]: ~0.5 nM
7 | DNV4 Fab (Fab, V domains shown, Human Fab from a phage library, hexahistidine-tagged, detected through a FLAG tag, made in E. coli HB2151) VH: EVQLVQSGAEVKKPGSSVKVSCKASGGTFSSYAISWVRQAPGQGLEWMGGIIPIFGTANYAQKFQGRVTITADESTSTAYMELSSLRSEDTAVYYCAREKPTGGYYGMDVWGKGTLVTVSS VL: not shown | binds | – | –
8 | DNV3.13 Fab (Fab, V domains shown, Light-chain-shuffled Fab variant of DNV3) VH: EVQLVQSGAEVKKPGASVKVSCKASGYTFTSYGISWVRQAPGQGLEWMGWISAYNGNTNYAQKLQGRVTMTTDTSTSTAYMELRSLRSDDTAVYYCARDSSSWWVDAFDIWGQGTMVTVSS VL: SYVLTQPPSASGTPGQRVTMSCSGRYSNIGGNTVNWYHHLPGTAPTLLIYSNDQRPSGVPDRFSGSKSGTSASLAISGVQSEDEADYYCAAWDDNLNGLVFGTGTKVTVL | – | binds | –
9 | DNV3.15 Fab (Fab, V domains shown, Light-chain-shuffled Fab variant of DNV3) VH: EVQLVQSGAEVKKPGASVKVSCKASGYTFTSYGISWVRQAPGQGLEWMGWISAYNGNTNYAQKLQGRVTMTTDTSTSTAYMELRSLRSDDTAVYYCARDSSSWWVDAFDIWGQGTMVTVSS VL: LPVLTQPPSASGTPGQRITISCSGSSSNIGSATVNWYQHLPGTAPKLLIYGDNQRPSGVADRFSGSKSGTSASLEIRGLQSEDEADYYCAAWDGSLDGVMFGGGTRVNVL | – | binds | –
10 | DNV3.18 Fab (Fab, V domains shown, Light-chain-shuffled Fab variant of DNV3) VH: EVQLVQSGAEVKKPGASVKVSCKASGYTFTSYGISWVRQAPGQGLEWMGWISAYNGNTNYAQKLQGRVTMTTDTSTSTAYMELRSLRSDDTAVYYCARDSSSWWVDAFDIWGQGTMVTVSS VL: SVVTQPPSVSEAPRQRVTISCSGSSSNIGNNAVNWYQQLPGKAPKLLIYYDDLLPSGVSDRFSGSKSGTSASLAISGLQSEDEADYYCAAWDDSLNAVVFGGGTKLTVL | – | binds | –
